Experimental data from the supplement of paper PMC10065799, “High-throughput profiling of sequence recognition by tyrosine kinases and SH2 domains using bacterial peptide display” (eLife, 2023).

Experiments:
Grb2 SH2 = Grb2 SH2 (UniProt P62993); test: SH2 binding enrichment of the phosphorylated peptide, bacterial display (enrichment ratio); higher = better substrate or ligand; peptides without Tyr show the background
SHP2-C SH2 = test: as above
c-Src SH2 = test: as above
Fes = Fes (UniProt P07332); test: phosphorylation enrichment, bacterial display (enrichment ratio); higher = better substrate or ligand; peptides without Tyr show the background
AncSZ = test: as above
EPHB1 = EPHB1 (UniProt P54762); test: as above
EPHB1, sequence (P54762 whole entry, looked up): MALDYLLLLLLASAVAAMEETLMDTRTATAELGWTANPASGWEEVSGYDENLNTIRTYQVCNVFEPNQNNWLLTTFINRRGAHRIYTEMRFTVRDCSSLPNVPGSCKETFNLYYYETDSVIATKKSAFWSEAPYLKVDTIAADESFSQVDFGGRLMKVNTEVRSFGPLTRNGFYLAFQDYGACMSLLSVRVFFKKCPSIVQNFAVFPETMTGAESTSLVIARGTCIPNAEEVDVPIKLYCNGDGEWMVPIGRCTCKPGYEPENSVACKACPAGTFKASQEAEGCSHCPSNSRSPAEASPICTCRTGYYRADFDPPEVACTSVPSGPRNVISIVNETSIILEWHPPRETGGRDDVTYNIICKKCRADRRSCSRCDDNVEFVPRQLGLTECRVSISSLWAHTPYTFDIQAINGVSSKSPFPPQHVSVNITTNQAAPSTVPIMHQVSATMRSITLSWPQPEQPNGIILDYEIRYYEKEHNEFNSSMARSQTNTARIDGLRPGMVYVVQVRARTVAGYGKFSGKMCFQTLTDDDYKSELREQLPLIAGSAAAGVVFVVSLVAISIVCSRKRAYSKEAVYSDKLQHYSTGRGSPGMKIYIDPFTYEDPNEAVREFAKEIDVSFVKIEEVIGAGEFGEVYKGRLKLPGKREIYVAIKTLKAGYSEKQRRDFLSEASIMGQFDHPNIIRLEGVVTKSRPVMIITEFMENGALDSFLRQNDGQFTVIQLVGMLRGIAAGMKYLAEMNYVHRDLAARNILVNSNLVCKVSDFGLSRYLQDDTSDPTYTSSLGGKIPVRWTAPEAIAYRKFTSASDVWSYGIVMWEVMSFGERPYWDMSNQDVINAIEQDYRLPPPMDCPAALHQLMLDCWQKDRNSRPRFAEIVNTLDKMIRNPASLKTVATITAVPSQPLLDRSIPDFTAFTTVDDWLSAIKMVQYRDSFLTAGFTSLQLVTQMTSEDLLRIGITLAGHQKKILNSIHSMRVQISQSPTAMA

c-Abl (mouse) = test: as above
FGFR1 = FGFR1 (UniProt P11362); test: as above
MERTK = MERTK (UniProt Q12866); test: as above
MERTK, sequence (Q12866 whole entry, looked up): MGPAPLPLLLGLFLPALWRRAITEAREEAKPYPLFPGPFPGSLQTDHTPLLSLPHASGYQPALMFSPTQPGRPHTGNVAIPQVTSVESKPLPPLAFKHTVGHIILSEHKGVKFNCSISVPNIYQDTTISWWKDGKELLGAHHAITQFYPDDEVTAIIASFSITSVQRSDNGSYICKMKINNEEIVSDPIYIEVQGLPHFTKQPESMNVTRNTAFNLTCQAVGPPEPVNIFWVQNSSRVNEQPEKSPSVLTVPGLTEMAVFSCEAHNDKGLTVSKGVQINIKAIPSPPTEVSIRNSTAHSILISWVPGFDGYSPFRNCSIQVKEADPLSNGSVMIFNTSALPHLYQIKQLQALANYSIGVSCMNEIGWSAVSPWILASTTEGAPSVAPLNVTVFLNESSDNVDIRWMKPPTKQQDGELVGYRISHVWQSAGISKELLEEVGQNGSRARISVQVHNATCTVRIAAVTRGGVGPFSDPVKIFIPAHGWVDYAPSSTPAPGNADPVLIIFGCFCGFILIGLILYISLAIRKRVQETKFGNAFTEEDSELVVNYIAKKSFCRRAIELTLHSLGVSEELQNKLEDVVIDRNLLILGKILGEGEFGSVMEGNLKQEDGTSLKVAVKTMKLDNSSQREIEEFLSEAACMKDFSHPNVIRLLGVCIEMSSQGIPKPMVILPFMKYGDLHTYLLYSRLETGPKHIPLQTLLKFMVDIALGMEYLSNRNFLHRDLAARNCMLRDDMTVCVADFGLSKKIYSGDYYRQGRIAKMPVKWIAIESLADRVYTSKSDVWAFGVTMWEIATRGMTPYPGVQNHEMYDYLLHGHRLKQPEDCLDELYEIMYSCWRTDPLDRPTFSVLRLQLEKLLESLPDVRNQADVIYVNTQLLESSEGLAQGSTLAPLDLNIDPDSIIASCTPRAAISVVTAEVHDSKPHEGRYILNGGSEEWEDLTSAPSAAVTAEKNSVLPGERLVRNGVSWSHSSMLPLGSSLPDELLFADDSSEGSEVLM

Fer (mouse) = test: as above
FGFR3 = FGFR3 (UniProt P22607); test: as above
FGFR3, sequence (P22607 whole entry, looked up): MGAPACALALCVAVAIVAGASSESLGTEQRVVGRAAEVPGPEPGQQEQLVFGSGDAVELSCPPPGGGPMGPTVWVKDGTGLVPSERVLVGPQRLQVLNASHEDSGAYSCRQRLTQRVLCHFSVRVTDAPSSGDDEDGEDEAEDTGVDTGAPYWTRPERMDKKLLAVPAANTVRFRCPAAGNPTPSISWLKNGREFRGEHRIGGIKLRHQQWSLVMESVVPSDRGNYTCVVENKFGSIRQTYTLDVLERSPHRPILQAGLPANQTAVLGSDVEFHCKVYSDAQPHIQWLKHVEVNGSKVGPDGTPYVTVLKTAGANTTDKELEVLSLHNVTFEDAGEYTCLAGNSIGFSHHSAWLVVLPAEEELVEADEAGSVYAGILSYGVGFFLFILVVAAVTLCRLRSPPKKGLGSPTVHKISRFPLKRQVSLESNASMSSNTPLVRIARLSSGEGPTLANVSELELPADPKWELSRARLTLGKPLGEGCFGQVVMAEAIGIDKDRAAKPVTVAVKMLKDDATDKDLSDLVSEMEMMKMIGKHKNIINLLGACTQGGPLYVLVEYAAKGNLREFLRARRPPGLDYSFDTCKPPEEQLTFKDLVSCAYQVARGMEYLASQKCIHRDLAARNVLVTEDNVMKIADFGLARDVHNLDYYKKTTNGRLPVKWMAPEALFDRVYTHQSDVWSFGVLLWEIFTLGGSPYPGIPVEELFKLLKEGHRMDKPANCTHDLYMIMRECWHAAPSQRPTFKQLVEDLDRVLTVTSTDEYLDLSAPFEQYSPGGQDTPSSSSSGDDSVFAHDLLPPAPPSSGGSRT

Jak2 = Jak2 (UniProt O60674); test: as above
c-Src = test: as above
Hck = Hck (UniProt P08631); test: as above
Fyn = Fyn (UniProt P06241); test: as above
Fyn, sequence (P06241 whole entry, looked up): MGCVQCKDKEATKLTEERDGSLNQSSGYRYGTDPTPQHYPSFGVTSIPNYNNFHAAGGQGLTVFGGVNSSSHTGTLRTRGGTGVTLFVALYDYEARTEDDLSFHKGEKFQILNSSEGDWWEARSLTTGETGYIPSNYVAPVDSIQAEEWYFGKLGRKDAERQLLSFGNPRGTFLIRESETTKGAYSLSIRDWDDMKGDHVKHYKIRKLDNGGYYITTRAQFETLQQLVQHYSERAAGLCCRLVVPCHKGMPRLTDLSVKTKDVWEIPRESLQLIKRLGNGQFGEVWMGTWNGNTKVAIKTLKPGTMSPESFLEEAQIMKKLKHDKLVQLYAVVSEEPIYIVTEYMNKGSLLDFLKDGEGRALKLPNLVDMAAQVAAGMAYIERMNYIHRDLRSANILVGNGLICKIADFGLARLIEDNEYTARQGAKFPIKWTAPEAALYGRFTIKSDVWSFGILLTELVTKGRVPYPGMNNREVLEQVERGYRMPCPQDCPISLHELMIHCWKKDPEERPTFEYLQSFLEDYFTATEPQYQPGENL

EPHB2 = EPHB2 (UniProt P29323); test: as above
EPHB2, sequence (P29323 whole entry, looked up, the tested form may be a part): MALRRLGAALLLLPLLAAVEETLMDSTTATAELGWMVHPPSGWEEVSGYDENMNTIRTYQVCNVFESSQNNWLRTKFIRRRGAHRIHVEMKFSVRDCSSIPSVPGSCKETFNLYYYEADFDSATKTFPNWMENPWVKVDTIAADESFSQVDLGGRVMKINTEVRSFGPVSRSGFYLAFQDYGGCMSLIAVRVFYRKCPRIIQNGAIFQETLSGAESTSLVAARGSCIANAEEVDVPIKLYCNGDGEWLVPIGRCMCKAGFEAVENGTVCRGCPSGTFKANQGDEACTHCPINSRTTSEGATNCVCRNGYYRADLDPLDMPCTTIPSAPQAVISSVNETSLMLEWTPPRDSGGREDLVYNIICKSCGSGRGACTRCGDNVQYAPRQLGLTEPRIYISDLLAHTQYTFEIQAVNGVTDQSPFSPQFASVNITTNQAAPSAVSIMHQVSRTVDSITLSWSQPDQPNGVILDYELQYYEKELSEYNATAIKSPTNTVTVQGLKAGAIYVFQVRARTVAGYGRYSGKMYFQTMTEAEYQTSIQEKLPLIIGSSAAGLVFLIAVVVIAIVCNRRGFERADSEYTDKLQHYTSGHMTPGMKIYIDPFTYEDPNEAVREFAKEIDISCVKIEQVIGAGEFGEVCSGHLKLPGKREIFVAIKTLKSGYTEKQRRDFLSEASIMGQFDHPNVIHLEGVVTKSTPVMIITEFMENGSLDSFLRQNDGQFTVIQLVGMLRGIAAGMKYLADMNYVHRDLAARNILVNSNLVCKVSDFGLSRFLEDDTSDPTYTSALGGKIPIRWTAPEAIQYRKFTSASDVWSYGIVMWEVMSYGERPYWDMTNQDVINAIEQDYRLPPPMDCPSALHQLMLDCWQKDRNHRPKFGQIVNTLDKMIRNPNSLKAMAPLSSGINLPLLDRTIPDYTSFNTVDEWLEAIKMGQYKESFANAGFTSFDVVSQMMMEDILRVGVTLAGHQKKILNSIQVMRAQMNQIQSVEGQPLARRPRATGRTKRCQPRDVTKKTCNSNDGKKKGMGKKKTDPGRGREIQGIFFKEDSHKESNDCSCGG
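For SH2 binding enrichment of the phosphorylated peptide, bacterial display in this document: peptide library displayed on the E. coli surface as eCPX fusions, selected cells deep-sequenced, score is each peptide's frequency after selection divided by its frequency in the input.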
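For phosphorylation enrichment, bacterial display in this document: 11-residue human phosphosite peptides and single-mutation variants displayed on the E. coli surface, counted by deep sequencing, each peptide's frequency after selection divided by its frequency in the unselected input library; frequency after pTyr selection over input frequency; kinase dosed for 20-30% of maximal phosphorylation in three min.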

Grb2 SH2, sequence (P62993 whole entry, looked up): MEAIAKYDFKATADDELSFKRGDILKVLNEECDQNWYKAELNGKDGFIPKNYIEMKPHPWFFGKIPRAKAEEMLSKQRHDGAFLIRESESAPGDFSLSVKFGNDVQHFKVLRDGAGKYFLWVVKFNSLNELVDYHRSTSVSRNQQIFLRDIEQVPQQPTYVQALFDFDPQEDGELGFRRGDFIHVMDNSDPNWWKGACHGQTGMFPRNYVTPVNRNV

| Sequence | SH2 binding enrichment (Grb2 SH2) | SH2 binding enrichment (SHP2-C SH2) | SH2 binding enrichment (c-Src SH2) | phosphorylation enrichment (Fes) | phosphorylation enrichment (AncSZ) | phosphorylation enrichment (EPHB1) | phosphorylation enrichment (c-Abl (mouse)) | phosphorylation enrichment (FGFR1) | phosphorylation enrichment (MERTK) | phosphorylation enrichment (Fer (mouse)) | phosphorylation enrichment (FGFR3) | phosphorylation enrichment (Jak2) | phosphorylation enrichment (c-Src) | phosphorylation enrichment (Hck) | phosphorylation enrichment (Fyn) | phosphorylation enrichment (EPHB2) |
| --- | --- | --- | --- | --- | --- | --- | --- | --- | --- | --- | --- | --- | --- | --- | --- | --- |
| GMSQAYSFSQR [DES_Y5_S7F] | 0.818 | 0.747 | 0.476 | 0.755 | 0.761 | 0.317 | 0.454 | 0.392 | 0.721 | 0.338 | 0.481 | 0.551 | 0.495 | 0.379 | 0.389 | 0.453 |
| RTLIRYANLGN [BEST1_Y131] | 3.12 | 1.12 | 0.802 | 1.14 | 1.03 | 0.918 | 1.04 | 0.621 | 0.706 | 0.737 | 0.654 | 0.793 | 0.685 | 0.481 | 0.973 | 0.666 |
| MFCASYDTKQE [F10_Y407_G406S] | 0.774 | 0.749 | 0.733 | 1.17 | 1.01 | 0.536 | 0.731 | 0.561 | 0.552 | 0.571 | 0.746 | 0.986 | 0.511 | 0.554 | 0.558 | 0.717 |
| QKDIFYGLRSL [IGSF10_Y126_T124I] | 0.9 | 1.14 | 0.516 | 1.29 | 0.894 | 0.672 | 1.03 | 0.515 | 0.844 | 0.405 | 0.73 | 1.12 | 0.923 | 0.676 | 0.783 | 0.616 |
| RESFKYLPSSL [CXXC1_Y218_F219L_YF] | 0.919 | 0.455 | 0.353 | 0.862 | 0.561 | 0.512 | 0.567 | 0.329 | 0.286 | 0.347 | 0.431 | 0.837 | 0.429 | 0.381 | 0.469 | 0.395 |
| VGTKRYMAPDV [ACVRL1_Y375_E379D] | 0.573 | 0.522 | 0.496 | 0.491 | 0.424 | 0.42 | 0.494 | 0.296 | 0.277 | 0.35 | 0.412 | 0.415 | 0.293 | 0.334 | 0.306 | 0.402 |
| KGLKVYVNGTL [ADGRD1_Y183_E178K] | 1.32 | 0.703 | 0.549 | 1.16 | 1.11 | 0.524 | 0.584 | 0.421 | 0.431 | 0.452 | 0.677 | 0.923 | 0.406 | 0.441 | 0.364 | 0.576 |
| RSRSPYSSRHS [CDK13_Y415] | 0.793 | 0.543 | 0.433 | 0.634 | 0.596 | 0.422 | 0.637 | 0.701 | 0.625 | 0.439 | 0.489 | 0.472 | 0.446 | 0.548 | 0.557 | 0.614 |
| SVTCTYSPALI [TP53_Y126_N131I] | 0.659 | 0.663 | 0.349 | 1.8 | 1.64 | 0.906 | 1.13 | 0.534 | 0.602 | 1.09 | 0.954 | 1.52 | 0.817 | 0.804 | 0.646 | 0.779 |
| IRKVLYANNVM [ACTA1_Y296_D294V] | 1.44 | 0.944 | 0.82 | 0.599 | 0.569 | 0.311 | 0.529 | 0.567 | 0.328 | 0.337 | 0.395 | 0.637 | 0.325 | 0.297 | 0.286 | 0.368 |
| HDHYGYRQSVT [CD55_Y245_R240H] | 0.895 | 0.833 | 0.654 | 1.06 | 0.801 | 0.4 | 0.622 | 0.695 | 0.883 | 0.743 | 0.623 | 1.06 | 0.538 | 0.969 | 0.94 | 0.713 |
| PATINYLFEKG [NDUFS8_Y84_P85L] | 1.05 | 0.663 | 0.611 | 0.891 | 0.754 | 0.541 | 0.293 | 0.796 | 0.36 | 0.43 | 0.963 | 0.703 | 0.435 | 0.562 | 0.357 | 0.529 |
| TSGVVYKARNK [CDK2_Y19_Y15S] | 0.742 | 0.866 | 0.565 | 0.661 | 0.53 | 0.392 | 0.51 | 0.354 | 0.479 | 0.519 | 0.447 | 0.427 | 0.516 | 0.462 | 0.359 | 0.358 |
| YPPTHYIRRVP [SLC4A11_Y820] | 0.675 | 0.596 | 0.443 | 0.678 | 0.754 | 0.407 | 0.601 | 0.448 | 0.469 | 0.346 | 0.43 | 0.76 | 0.449 | 0.369 | 0.444 | 0.492 |
| VPVNGYQPVTA [ROR2_Y824_P828T] | 0.846 | 0.635 | 0.6 | 0.535 | 0.492 | 0.392 | 0.516 | 0.375 | 0.392 | 0.336 | 0.535 | 0.494 | 0.309 | 0.348 | 0.541 | 0.414 |
| CLRIDYERVSQ [DSP_Y1542_R1537C] | 0.816 | 0.599 | 0.567 | 1.57 | 1.23 | 1.48 | 0.96 | 0.574 | 0.475 | 0.674 | 1.04 | 1.38 | 0.517 | 0.631 | 0.524 | 1.03 |
| EYDRLYEEYTR [PIK3R1_Y467] | 0.728 | 0.678 | 3.83 | 1.43 | 2.49 | 4.27 | 1.34 | 0.826 | 2.8 | 6.02 | 0.889 | 1.21 | 5.99 | 6.46 | 7.8 | 7 |
| YAKSVYWDNTL [NUP107_Y296_E298D] | 0.858 | 0.9 | 0.587 | 0.839 | 0.848 | 0.621 | 0.557 | 0.515 | 0.435 | 0.871 | 0.576 | 0.69 | 0.736 | 0.678 | 0.599 | 0.515 |
| GADAIYDHVNE [UQCR10_Y44_I47V] | 0.79 | 0.648 | 0.523 | 1.08 | 1.09 | 1.34 | 0.8 | 0.456 | 2.02 | 3.42 | 0.62 | 0.773 | 3.77 | 6.29 | 4.52 | 1.82 |
| TTPAVYARVAK [CTRB2_Y246] | 0.897 | 2.3 | 2.12 | 0.583 | 0.49 | 0.594 | 1.04 | 0.436 | 0.529 | 0.383 | 0.436 | 0.464 | 2.23 | 2.77 | 1.28 | 0.505 |
| KDQGTYEDYVE [MYL6_Y86] | 0.755 | 0.553 | 0.784 | 1.23 | 1.24 | 0.493 | 0.866 | 0.534 | 0.543 | 0.56 | 0.721 | 1.13 | 0.768 | 0.617 | 0.647 | 0.576 |
| REGAKYVSHGT [ASS1_Y113_A118T] | 0.808 | 0.706 | 0.566 | 0.969 | 0.73 | 0.513 | 0.517 | 0.493 | 0.663 | 0.375 | 0.482 | 0.898 | 0.411 | 0.37 | 0.363 | 0.587 |
| VHNLDYYKQTT [FGFR3_Y647_K650Q] | 0.984 | 0.752 | 0.49 | 0.955 | 0.934 | 0.686 | 0.555 | 1.36 | 0.607 | 0.525 | 1.34 | 0.945 | 0.697 | 0.485 | 0.586 | 0.617 |
| LESILYESSVV [TRPV4_Y91_T89I] | 0.86 | 0.732 | 0.613 | 1.39 | 1.65 | 0.607 | 1.01 | 0.725 | 0.678 | 7.52 | 0.825 | 1.23 | 1.14 | 1.65 | 1.22 | 0.719 |
| KNRDVYSSDFF [USP24_Y2134_YF] | 0.916 | 0.55 | 0.588 | 0.828 | 0.651 | 1.69 | 0.752 | 0.718 | 3.39 | 0.429 | 0.544 | 0.693 | 0.952 | 0.832 | 0.833 | 1.73 |
| QFPDIYAREEV [CRX_Y67_V66I_YF] | 1.02 | 0.9 | 0.525 | 1.91 | 1.82 | 0.628 | 0.99 | 1.15 | 0.773 | 0.707 | 1.26 | 2.02 | 1.23 | 1.56 | 0.959 | 1.21 |
| TQFWRYFAGNL [SLC25A5_Y112_L111R] | 0.977 | 0.894 | 0.545 | 1.05 | 0.918 | 0.6 | 1.55 | 0.494 | 0.433 | 0.351 | 0.655 | 0.951 | 0.489 | 0.493 | 0.509 | 0.589 |
| FGPPQYNMQFS [ERBB2IP_Y977_I979M_YF] | 0.932 | 0.653 | 0.529 | 0.679 | 0.64 | 0.414 | 0.383 | 0.448 | 0.376 | 0.306 | 0.452 | 0.49 | 0.372 | 0.52 | 0.456 | 0.427 |
| FFVVEYRDQKP [MUC17_Y4332_YF] | 1.6 | 1.55 | 0.861 | 1.27 | 1.05 | 0.657 | 0.617 | 0.612 | 0.374 | 0.53 | 0.803 | 1.03 | 0.566 | 0.515 | 0.474 | 0.647 |
